{"source": "patent EP3583122A1", "about": "(dated 2019)", "binders": {"B1": {"name": "mAb PE-87 (antibody, V domains shown)", "VH": "QVQLVQSGVTLVQPGGSLRVSCAASGFTFSSYAMSWVRQAPGKGLEWVSAISGLGGSTYYADSVKGRFTISRDNSKNTLYLQMNSLRAEDTAVYYCAKDHRVWAAGYHFDYWGQGALVTVSS", "VL": "DIVLTQSPSTLSASVGDRVTITCRASQSISSWLAWYQQKPGEAPKLLISDASSLESGVPSRFSGSGSGTEFTLTISSLQPDDFATYYCQQYYSSPTFGGGTKVEIK"}}, "assay_in_all_cases": "cell-based or functional assay", "key": {"[1]": {"biological_target": "T1, EBOV GP on rVSV particles (Ebola virus (EBOV), UniProt Q05320 33-676)", "T1 sequence": "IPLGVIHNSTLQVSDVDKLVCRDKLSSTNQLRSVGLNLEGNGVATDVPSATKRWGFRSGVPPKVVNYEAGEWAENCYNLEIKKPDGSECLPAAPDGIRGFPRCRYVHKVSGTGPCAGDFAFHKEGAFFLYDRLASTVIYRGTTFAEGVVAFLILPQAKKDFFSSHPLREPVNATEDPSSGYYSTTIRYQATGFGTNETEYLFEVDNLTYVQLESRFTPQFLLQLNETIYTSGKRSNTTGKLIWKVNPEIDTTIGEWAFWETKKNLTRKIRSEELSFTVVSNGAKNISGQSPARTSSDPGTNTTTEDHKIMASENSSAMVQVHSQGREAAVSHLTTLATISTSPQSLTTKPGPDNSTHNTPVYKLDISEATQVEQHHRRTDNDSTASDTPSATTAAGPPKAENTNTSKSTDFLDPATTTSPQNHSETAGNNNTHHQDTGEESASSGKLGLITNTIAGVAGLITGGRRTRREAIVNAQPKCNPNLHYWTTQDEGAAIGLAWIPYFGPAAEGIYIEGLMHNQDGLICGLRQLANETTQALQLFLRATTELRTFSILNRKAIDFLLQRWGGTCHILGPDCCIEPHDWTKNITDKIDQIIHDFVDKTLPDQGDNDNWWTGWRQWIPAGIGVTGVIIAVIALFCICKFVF"}, "[2]": {"biological_target": "BDBV GP on rVSV particles (Bundibugyo virus (BDBV))"}, "[3]": {"biological_target": "T2, TAFV GP on VSV pseudotype particles (Tai Forest virus (TAFV), UniProt Q66810 33-676)", "T2 sequence": "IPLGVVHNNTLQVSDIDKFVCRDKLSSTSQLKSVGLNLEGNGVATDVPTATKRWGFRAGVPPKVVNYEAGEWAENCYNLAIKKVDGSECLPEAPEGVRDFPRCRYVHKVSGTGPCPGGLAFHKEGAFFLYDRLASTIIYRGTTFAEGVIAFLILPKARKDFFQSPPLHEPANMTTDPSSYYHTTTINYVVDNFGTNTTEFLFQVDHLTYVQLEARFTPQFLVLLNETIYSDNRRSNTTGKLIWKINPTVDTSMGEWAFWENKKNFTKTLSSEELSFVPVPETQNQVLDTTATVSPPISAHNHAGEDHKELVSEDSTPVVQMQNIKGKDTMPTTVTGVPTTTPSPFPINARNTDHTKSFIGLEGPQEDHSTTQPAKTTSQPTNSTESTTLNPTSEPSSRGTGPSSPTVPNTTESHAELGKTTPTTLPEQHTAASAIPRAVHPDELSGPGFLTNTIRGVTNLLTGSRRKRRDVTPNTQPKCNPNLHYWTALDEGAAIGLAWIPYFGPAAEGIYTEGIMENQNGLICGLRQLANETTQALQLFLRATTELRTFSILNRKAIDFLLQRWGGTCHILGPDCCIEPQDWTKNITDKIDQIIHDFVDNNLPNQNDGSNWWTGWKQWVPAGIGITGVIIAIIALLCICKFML"}, "[4]": {"biological_target": "T3, SUDV GP on rVSV particles (Sudan virus (SUDV), UniProt Q66814 33-676)", "T3 sequence": "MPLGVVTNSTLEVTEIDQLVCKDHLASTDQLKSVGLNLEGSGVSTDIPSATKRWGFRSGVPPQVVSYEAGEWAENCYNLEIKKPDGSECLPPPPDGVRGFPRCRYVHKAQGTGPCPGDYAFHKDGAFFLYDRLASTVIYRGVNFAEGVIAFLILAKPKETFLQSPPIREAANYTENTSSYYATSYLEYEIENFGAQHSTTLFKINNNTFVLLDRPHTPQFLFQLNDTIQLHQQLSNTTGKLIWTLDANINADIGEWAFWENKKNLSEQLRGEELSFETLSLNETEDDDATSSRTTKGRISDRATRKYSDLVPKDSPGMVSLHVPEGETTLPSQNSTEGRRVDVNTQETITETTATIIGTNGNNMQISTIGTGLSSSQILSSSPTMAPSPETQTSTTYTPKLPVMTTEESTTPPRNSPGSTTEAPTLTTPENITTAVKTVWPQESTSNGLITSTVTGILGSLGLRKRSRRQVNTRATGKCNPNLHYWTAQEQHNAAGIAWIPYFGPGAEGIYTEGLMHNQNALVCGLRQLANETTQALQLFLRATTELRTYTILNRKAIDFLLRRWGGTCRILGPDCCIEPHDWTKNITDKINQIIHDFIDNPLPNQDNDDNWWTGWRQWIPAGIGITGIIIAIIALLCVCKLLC"}, "[5]": {"biological_target": "T4, RESTV GP on rVSV particles (Reston virus (RESTV), UniProt Q66799 34-677)", "T4 sequence": "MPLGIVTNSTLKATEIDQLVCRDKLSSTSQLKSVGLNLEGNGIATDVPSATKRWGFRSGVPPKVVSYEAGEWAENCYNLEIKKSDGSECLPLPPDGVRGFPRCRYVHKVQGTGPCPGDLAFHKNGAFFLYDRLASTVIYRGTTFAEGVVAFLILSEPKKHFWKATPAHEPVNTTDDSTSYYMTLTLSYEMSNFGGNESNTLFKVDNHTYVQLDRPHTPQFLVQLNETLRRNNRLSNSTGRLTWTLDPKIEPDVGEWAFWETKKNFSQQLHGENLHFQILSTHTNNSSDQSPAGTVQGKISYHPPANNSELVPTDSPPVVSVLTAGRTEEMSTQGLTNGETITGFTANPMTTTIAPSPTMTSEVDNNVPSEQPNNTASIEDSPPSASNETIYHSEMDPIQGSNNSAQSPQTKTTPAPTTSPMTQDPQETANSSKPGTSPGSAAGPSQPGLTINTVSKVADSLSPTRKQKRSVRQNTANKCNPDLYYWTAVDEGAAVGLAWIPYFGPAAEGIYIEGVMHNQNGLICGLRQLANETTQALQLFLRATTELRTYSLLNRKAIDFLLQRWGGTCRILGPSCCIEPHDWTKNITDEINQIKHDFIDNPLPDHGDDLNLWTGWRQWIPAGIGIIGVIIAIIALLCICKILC"}}}
{"binder": "B1", "values": [{"measurement": "IC50, half-maximal neutralization of viral infectivity (rVSV-GP)", "setting": "[1]", "result": 1, "unit": "nM"}, {"measurement": "IC50, half-maximal neutralization of viral infectivity (rVSV-GP)", "setting": "[2]", "result": 0.4, "unit": "nM"}, {"measurement": "IC50, half-maximal neutralization of viral infectivity (rVSV-GP)", "setting": "[3]", "result": 0.9, "unit": "nM"}, {"measurement": "IC50, half-maximal neutralization of viral infectivity (rVSV-GP)", "setting": "[4]", "result": 0.8, "unit": "nM"}, {"measurement": "IC50, half-maximal neutralization of viral infectivity (rVSV-GP)", "setting": "[5]", "result": 0.1, "unit": "nM"}]}
